# Source: the DeepSol protein solubility set
# Experiment: soluble on expression in E. coli; label from the status in PepcDB or PDB records
row,Sequence,soluble on expression in E. coli
1,MGSDKIHHHHHHMMRENLAYLEPPLRIAILSQGPQLYSTKRLVEAAQARGHDVHIINPLKCYMNINMRQPSIHIAGKELPQFDAVIPRIGASITFYGSAVLRQFEMMGVYTINDSVGISRSRDKLRSMQLLSRKGIGLPITGFANKPSDIPDLIDMVGGAPLVVKLLEGTQGIGVVLAETRKAAESVLEAFMGLKANIMVQEYIKEANGADIRCFVLGDKVIAAMKRQAKAGEFRSNLHRGGTATLVKLSPEERTTAIRAAKTMGLSLAGVDLLRSNHGPVVMEVNSSPGLEGIEAATQKDVANAIIEFIEKNANKAKS,not soluble
2,MSDDEIGDGARAFNQLIQALSLSIETETAVRTFTEMLVSELDVHQLTEQALALLLQHTGADGGAILIEVDGEIRVAASQGIGSAHTLANNDRVRSALRTERRHRVQLPEDLVVDGMLAQFRPKEVIIDPVRHKEVVLGAVVLASGQGFSAEDRNRLDVFERGLALALHNALLYDRLQTLAALDPLTGALEHHHHHH,soluble
3,MSKIIGIDLGTTNSCVAVLEGGEVKVIPNPEGNRTTPSVVAFKNGERLVGEVAKRQAITNPNTIISIKRHMGTDYKVEIEGKQYTPQEISAIILQYLKSYAEDYLGEPVTRAVITVPAYFNDAQRQATKDAGRIAGLEVERIINEPTAAALAYGLDKEEDQTILVYDLGGGTFDVSILELGDGVFEVKATAGDNHLGGDDFDQVIIDYLVNQFKQEHGIDLSKDKMALQRLKDAAEKAKKELSGVTQTQISLPFISANENGPLHLEMTLTRAKFEELSAHLVERTMGPVRQALQDAGLTPADIDKVILVGGSTRIPAVQEAIKRELGKEPHKGVNPDEVVAIGAAIQGGVIAGEVKDVVLLDVTPLSLGIETMGGVFTKLIERNTTIPTSKSQVFTTAADNQTTVDIHVLQGERPMAADNKSLGRFQLTGIPPAPRGVPQIEVTFDIDANGIVHVRAKDLGTNKEQSITIKSSSGLSEEEIQRMIKEAEENAEADRKRKEAAELRNEAD,soluble
4,GHDEIGQLATTFNHLTRELEDAQAMTEGERRKLASVIAYMTDGVIATNRNGAIILLNSPALELLNVSRETALEMPITSLLGLQENYTFEDLVEQQDSMLLEIERDDELTVLRVNFSVIQREH,not soluble
5,MSLRESVLKIYNWADYIDEDMLAEFPRWYKEQTGEDIRIVYQTFDINEIMLTKIERGHEDFDVVCPSEYIIERMLRKGLLLPIDTVFGKTPNYLHNESPYIREQLDKLSWSGHRASDYAIGYMWGTAGILFNTDHVPAEDARTWASLWNLKYENKILMKESYRDAYGTALIYANAEDLKKGKVTVEELMNNYSQASIDTVEKYLKAMKPLIAGWEADFGKEMMTKGKAWLNMTWSGDAVWAIEEAEGVGIHLDYEVPVEGSNVWYDGWVIPKYARNKKAASYFINYLCRPDVALRNMDACGYVSAVATPEILEAKIDTTLSYFADLSYFFGPAADSIQIDKVQYPDRTVVERCAMIRDSGDKTELVLEMWSRVKGDNEGHHHHHH,soluble
6,MATVIHNPLKALGDQFYKEAIEHCRSYNSRLSAERSVRLPFLDSQTGVAQNNCYIWMEKRHRGPGLAPGQLYTYPARCWRKKRRLHPPEDPKLRLLEIKPEVELPLKKDGFTSESTTLEALLRGEGVEKKVDAREEESIQEIQRVLENDENVEEGNEEEDLEEDIPKRKDRTRGRARCPLPSLHCFSSLPSAVIDAKEWGGGGKWEATVAYRKKKIYPVHIFNMLEHHHHHH,not soluble
7,MGSDKIHHHHHHMLNQQWLATFVTLVEVGHFTHTANKLFMTQPGVSQHIKKLEEQVGVHLLLRKGKRFELTEAGAILYQHARQYQLAETELLARLQTDNTYVGECRFGCSGAIASLLYPHFLERQIQYPELCVKIEAAPNQRIVSGILTNQLDMGIVTKRGEEADLTYQALGYAELSLVLPSQYLVDKIGIELLEQIGFIDHPDGDYYLQQVLQANFGGRAPMVNSRTGSPVKAHTMAFTHHIRRTGYVNQLSQILLPVAKGLGFTVLPLSTVNAFMPRESLWAVDLEQKVQESLYLVHKSTRPLPSRFDAFIEMAARLIAN,not soluble
8,MVERIEDLNLPNAVIGRLIKEALPESASVSKEARAAIARAASVFAIFVTSSSTALAHKQNHKTITAKDILQTLTELDFESFVPSLTQDLEVYRKVVKEKKESKASKKDSNTAENANASATATAEEAPE,soluble
9,HHHHHHMQHLVLIGFMGSGKSSLAQELGLALKLEVLDTDMIISERVGLSVREIFEELGEDNFRMFEKNLIDELKTLKTPHVISTGGGIVMHENLKGLGTTFYLKMDFETLIKRLNQKEREKRPLLNNLTQAKELFEKRQALYEKNASFIIDARGGLNNSLKQVLQFIA,soluble
10,MGSDKIHHHHHHMIVMDAETLKELIRDDFEVINANETVSKLFPMLEKLDRDKANAILVEEDGKIVGVVREKDLIRGSVLKNPHETKVKSLLVRTGKIDLNELDPYKVARRFVEDSTPFVIVQIDDKRVGVIYINDFLSALKDEFKDVKVREVMNPEVITVRRFDSAAKALSVMRTHGIDRVVVVDENNKVIGILTGKDVVDRVISPRKRARMGDSSGEKEKTLSIMVESIMSSPVVSVSRNDSVAEVIDLMVENRISSVVVTRDGLPDGIVIKKDILEYYLKKESRKEFNVQISTADITLDEFDREAILEDVEKLMRKFSDFLGESFLFIYIKRHKEHFRNLPLIHVRLKLASEKGNFMVSGESWGVEYAVHVALKKLEREILKEKELLEDKRMIKRFYEEVLEY,not soluble
11,MHCPFCDTEETKVIDSRLVSDGYQVRRRRECGHCHERFTTFEMAELIIPKIIKTDGTREPFNEDKLRSGIQHALEKRPVSADDVEKAINHIILQLRATGEREVPSKLVGKLAMNELKKLDKVAYIRFASVYLSFDDIDQFTIEIEKLKD,not soluble
12,MAEERHHTEHIPQWKKDEIENIKELIQSHKVFGMVRIEGILATKIQKIRRDLKDVAVLKVSRNTLTERALNQLGESIPEMTRYLDNQTALIFTNESPFKLYKLLEQTKTPSPIKAGAIAPEDIIVQKGPTSFPPGPILGELQSAGIPASIDAGKVAVKETKVVCKAGEAVPQKLATMLSKLEIYPLIVGLDLRAAYDDGTIYEPELLAVDESKYFSDIIRAAQNAFNLSVNTAYPTGATIGTLLAKAYAESKSLGVNAVILEPGVMDSLLAKAHVQMTSVASEAAEKDANAVDDDLREVLGAAASAAAAATVAAPAAEEEKKEEEPEEEEEDHAEEDGMAGLGALFGLEHHHHHH,soluble
13,MAEHECVQLVPIFSELGSEQLDIIESIVRHHHYPAGSTLFGADDPLDSLMIVANGQVKVYQLAANGREQLLYLLQTGDIDGEAALFENQRRTSFGEALVPTDVCSIRRSDFQDLMQKYPSISINVLNVFGKRLNQLERQTTSTATESVEARLANYITETAAALKTDTFKLPLKKKDLATFLGTTPESISRKLALFERQGLITQKPGKVIEINDADQLLLTE,soluble
14,MFSCISPQKSPAFSPEQEKMLKSNRANEPQSFVKGNDAAKSDLIDLEEVVTNWAKTMFDVTKSKAEGKIKKKYLSYNINWTKLFQECSEPTYTILGAKPNVVDAKQDEKVIFKTTFTNTTQREQEYSFKTERCTRSSSTVIIEKGVCRGAEVSLKLKTPCEVVEANAGFTTEVMLNHIGENTSEEELTWGVDSCVKVPPGAETVAELVIIEDIVTRDFRIENRLSGKVLVTITNLKENNSLVTIIEGNICDIIRGMPDYTAKGFRFDGPAAIYETRGQCIFRFGIEQKVRINEFSLNSSRRY,not soluble
15,MRIHAFHRLYQYRQSISTKPFNARGCKVQRCPFCQVSEQHCLCELQPDIDSNVACMLIVSENEVFKPSNTGRLIADTVKETYVYQWNRTEPSQEMLDLLSNEDYLPVIVFPADYVDQPERLLDGLHTEHLHRTDGNSKKWLLIFIDGSWREARKIFRRSEFLQSLPVLSIEPECLSEYIMRRSENEQHLSTAEVATLVLKQAGENKASECLQLWFEAFRETYMLTKTRVKNDPNRPHLKRFKEWLKTESLEHHHHHH,not soluble
16,MSLLCLFAVFAFSCNEEMERLLTDDYPESGTEYTTGHVLMVVIDGASGIAVNEAYNTRKAPVIRSMTDKSLFTFYGLADNEEGVSKERGWANLLTGTTKNGLDVNQGIDELETPSFLQRLKEADENLKVSFYSSDTEFFGAFGSVANTKRKTSADSETADALIAEINGETISDIVVAQFGGVQQTGEQYGFWSNETTPTSEVIDAIYNVDAFIGKIMKALEARSRYVQENWLVVITSSYGGVYEGNVTPASEGHHHHHH,soluble
17,SLKIKHEHIESVLLALAAEKGQAWVANAITEEYLRQGGGELPLVPGKDWNNQQNIYHRWLKGETNAQREKIQKLIPAVLAILPRELRHRLCIFDTLERRALLAAQDALSTAIDAHDDAVQAVYRKAHFSGGGSPSDSVVVH,soluble
18,GPGSMFRKAESAHAAINATHLTQPTPNCGTVLHVSIAMHDEGLDDHPNDRLFIRGLPQWATKEHLRQMFAPYGVITECAVLMNPLGQCKGSGFVQFSSQQEATAAIKARDSISMDNWPNQLEVKYSESAEVRQMRQERNRNRQRHWLPSPQYRGGNTPSSLPSPYPGFSPPLSLIPSPQAFPVMNAMPFSMVYSPTPATTGAP,soluble
19,MSNTDNSDKNTKPTGYRPPQTDFNTEFGNNLDYPRLGSVSFRRGTLTDNQESLWDANWPILGKDLTDAEDQRIDVAEWFGRCGHKTILEIGSGTGTSTAAMAPLEADTNIIAVELYKPGLAKLLGAVVRGDISNVRMIRGDGVEVLTRMLPEESLDGVRIYFPDPWPKARHHKRRIIQSGVLNLIASRLKPGGVLHVATDHADYAEWITELVNVEPQLEFMGWPWDECPQLTDRQVITKFEGKGLDKDHTITEFLWRRK,not soluble
20,MIRMAQNNKELEKLAYEYQVLQAQAQILAQNLELLNLAKAEVQTVRETLENLKKIEEEKPEILVPIGAGSFLKGVIVDKNNAIVSVGSGYAVERSIDEAISFLEKRLKEYDEAIKKTQGALAELEKRIGEVARKAQEVQQKQSMTSFKVKK,soluble
21,MSLGRPAPFKVGALNSITGAGGTYGPGMLEAIKIGIAEVNAAGGAAGRELKLYAEDDQTRPDAAVLAARKLVDIQHVDAMIGIWSSAVQLATLPITNAAGILSFNTCGAPEIRTEDKRDLVFQFYASNAIIGAAFAAIGQRLGYKRAAVLGYNNATMSVQANHFKAAWEKKGNQIVSSAIYEPNQATYRTEVEKAVAAKPDVIVLSSYTPDATILLKEWYQTGYECKFIMPGYSATPALIKALGPDVMRNIVSTANVPASDNQAYKAFVEKFQAVTKSPPEMFAAAAYDMVITLALAIEAAGPDAKPADLSALVRQVSNPPGQKVSSFVQGRDLLRQKAKIDFDGASSSLDFDANGDTVPDFGIYEFDGKAFALKDVVPGATEGHHHHHH,soluble
22,MSLALRFITAEEAAEFVHHNDNVGFSGFTPAGNPKVVPAAIAKRAIAAHEKGNPFKIGMFTGASTGARLDGVLAQADAVKFRTPYQSNKDLRNLINNGSTSYFDLHLSTLAQDLRYGFYGKVDVAIIEVADVTEDGKILPTTGVGILPTICRLADRIIVELNDKHPKEIMGMHDLCEPLDPPARRELPVYTPSDRIGKPYVQVDPAKIVGVVRTSEPNDESDFAPLDPVTQAIGDNVAAFLVSEMKAGRIPKDFLPLQSGVGNVANAVLGALGDNPDIPAFNMYTEVIQDAVIALMKKGRIKFASGCSLSVSRSVIQDIYANLDFFKDKILLRPQEYSNNPEIVRRLGVITINTALEADIFGNINSTHVSGTRMMNGIGGSGDFTRNSYVSIFTTPSVMKDGKISSFVPMVAHHDHSEHSVKVIISEWGVADLRGKNPRERAHEIIDKCVHPDYRPLLRQYLELGVKGQTPQNLDCCFAFHQELAKSGDMRNVRWEDYMKEGHHHHHH,soluble
